These results are taken from article PMC7294595.

This experiment has as its target flu-pTyr (gp130-derived phosphopeptide) (Homo sapiens).

B1: STAT3 127-711, P40763 (protein)
chain: GQANHPTAAVVTEKQQMLEQHLQDVRKRVQDLEQKMKVVENLQDDFDFNYKTLKSQGDMQDLNGNNQSVTRQKMQQLEQMLTALDQMRRSIVSELAGLLSAMEYVQKTLTDEELADWKRRQQIACIGGPPNICLDRLENWITSLAESQLQTRQQIKKLEELQQKVSYKGDPIVQHRPMLEERIVELFRNLMKSAFVVERQPCMPMHPDRPLVIKTGVQFTTKVRLLVKFPELNYQLKIKVCIDKDSGDVAALRGSRKFNILGTNTKVMNMEESNNGSLSAEFKHLTLREQRCGNGGRANCDASLIVTEELHLITFETEVYHQGLKIDLETHSLPVVVISNICQMPNAWASILWYNMLTNNPKNVNFFTKPPIGTWDQVAEVLSWQFSSTTKRGLSIEQLTTLAEKLLGPGVNYSGCQITWAKFCKENMAGKGFSFWVWLDNIIDLVKKYILALWNEGYIMGFISKERERAILSTKPPGTFLLRFSESSKEGGVTFTWVEKDISGKTQIQSVEPYTKQQLNNMSFAEIIMGYKIMDATNILVSPLVYLYPDIPKEEAFGKYCRPESQEHPEADPGSAAPYLKTKFI
B1 showed a Kd of 60 nM.

As a reminder, the Kd is the concentration at which binding is half-saturated. Read a high Kd as a looser complex.
